Where two headings read alike, the source gives them in different places. Blank lines part the entries; values can stand above or below the substance they belong to.
Legend:
[1] = biological target: PCNA (Saccharomyces cerevisiae) (UniProt P15873); details: cited from earlier work
[2] = biological target: Histones H3–H4 (H3 C110A-H4 E63C), Alexa488-labeled (Xenopus laevis); experiment: fluorescence polarisation; 10 nM Alexa488-labeled H3–H4 with increasing CAF-1, Polϵ, Polδ or RPA; 25 mM TRIS pH 7.5, 300 mM NaCl, 5% glycerol, 1 mM EDTA, 0.01% IGEPAL, 0.01% CHAPS, 1 mM DTT; one site binding curve
[3] = biological target: PCNA K164C, labeled with Alexa Fluor 546 (yeast) (UniProt P15873); experiment: cross-linking; limiting PCNA: 50 nM AF546-PCNA K164C loaded on nicked pUC19 (15 nM) by full-length RFC (15 nM), CAF-1 titrated 0-1 μM, 100-110 mM NaCl; 0.2% glutaraldehyde; nuclease digestion; SDS-PAGE, PCNA fluorescence, band intensities; affinities estimated
[4] = biological target: Proliferating Cell Nuclear Antigen (PCNA), wild type (yeast) (UniProt P15873)
[5] = biological target: PCNA (Saccharomyces cerevisiae) (UniProt P15873); details: cited from earlier work; remark: listed apart in the source

Substance: DNA polymerase delta (from UniProt P15436)
Kd [1]: 13.7 nM

Kd [2]: 1.1 nM
Substance: Chromatin Assembly Factor-1 (CAF-1), wild type (from UniProt Q12495 1-606; Q04199 1-468; P13712 1-422) (complex)

Kd [3]: < 50 nM
Substance: CAF-1_ΔAD mutant (acidic domain deleted) (from UniProt Q12495 1-606; Q04199 1-468; P13712 1-422) (complex)

Kd [2]: 28 nM | maximum leading-strand replication rate in pulse-chase with the yeast replisome (+RFC/PCNA, Polδ omitted) with 180 nM CAF-1 added; ∼1.09 kb/min without CAF-1 [4]: 0.85 kb/min
Substance: DNA polymerase epsilon (Polϵ) (complex)

Substance: DNA polymerase epsilon (from UniProt P21951)
Kd [5]: 326 nM
